Measurements reported in article PMC4048220, “Exploring the Electron Transfer Pathway in the Oxidation of Avermectin by CYP107Z13 in Streptomyces ahygroscopicus ZB01” (PLoS ONE, 2014).

How the values were obtained:
[1] = substrate: NC(=O)C1=CN([C@@H]2O[C@H](COP(=O)(O)OP(=O)(O)OC[C@H]3O[C@@H](n4cnc5c(N)ncnc54)[C@H](O)[C@@H]3O)[C@@H](O)[C@H]2O)C=CC1; assay: spectrophotometric DCPIP reduction; format: biochemical, Streptomyces ahygroscopicus; conditions: DCPIP as electron acceptor
[2] = substrate: NC(=O)C1=CN([C@@H]2O[C@H](COP(=O)(O)OP(=O)(O)OC[C@H]3O[C@@H](n4cnc5c(N)ncnc54)[C@H](O)[C@@H]3O)[C@@H](O)[C@H]2O)C=CC1; assay: spectrophotometric DCPIP reduction; format: biochemical, Streptomyces hygroscopicus; conditions: DCPIP as electron acceptor

Protein | Km [1] [µM] | kcat [1] [min⁻¹] | Km [2] [µM] | kcat [2] [min⁻¹]
FdR28 (Streptomyces ahygroscopicus; V1M) (protein, FAD flavoprotein; pRSET-b (vector His tag), E. coli BL21(DE3), Ni-Sepharose purified; GTG start changed to ATG; cloning primers encode N-terminal MVVGAS, C-terminal TAAYQHR) MVVGASLAGLRAAEALRGEGFTGSLTMIGDELGEPYDRPPLSKQVLTGWVPADNTKLPRRRDVDAEWLLGVPASGLDLANNHVRLADGRQVPFDRVPISTGVRARPWFVESEAALDGVFVVRTREHAEALQRALAAGPSRVLVIGAGFTGSEIASVCRERDIPVTVAELAPAPLVGALGAMIGDVAADVQRAHGVDLRCGVKVTQLEGDAQGRLRRAHFDDGTTVDADVAVVALGGIRNTDWLRDSGLAAGVWGIACDTGCRALDLNGLVTDDVFVAGDVARCPNPIYEYRLISLEHWANAVEQAEVAAHNMVSGQADRWPHLTLPLFWSIQFGINIKSVGVPTFADEVVVTQGSVPDHRFVAAYGYRGRVTAAVSFNNAKWLDHHRRLIETAAPFPPLCPTPDQPADTKPVPVDFPGPALLAQGATVVVTGHDPSERRVTAAYQHR | 25.4 | 386 |  | 
FdR18 (Streptomyces hygroscopicus) (protein, FAD flavoprotein; pRSET-b (vector His tag), E. coli BL21(DE3), Ni-Sepharose purified; GTG start changed to ATG; cloning primers encode N-terminal MVDAHQT, C-terminal LTSLLP) MVDAHQTFVIVGGGLAGAKAAETLRAEGFTGRVILICDERDHPYERPPLSKGYLLGKEERDSVFVHEPAFYAQARIELHLGQPAVHLDPAARTVRLGDGTLIAYDKLLLATGAEPRRLDVPGTGLAGVHHLRRLAHAERLRGVLASLGRENGHLVIAGAGWIGLEVAAAARSYGAEVTIIEPEPTPLHGILGPELGALFTDLHAEHGVRFHFGARLTEIVGQDGMVVSVRTDDGEEHPAHDVLAAIGAAPRTALAEQAGLDVVDRADGGGIAVDAALRTSDPFIHAAGDVAAADHPLLDTRLRVEHWANALNGGPAAARAMLGQDISYDRVPYFFSDQYDLGMEYSGYAPPGSYDQVVCRGDVGKREFIAFWLREGRVLAGMNVNVWDVAGDVQQLIRSGTPLDPEKLTDPTVPLTSLLP |  |  | 64 | 121
